Test results taken from article PMC3879392, “Mutant LV^476-7AA of A-subunit of Enterococcus hirae V1-ATPase: High affinity of A3B3 complex to DF axis and low ATPase activity” (SpringerPlus, 2013).

Test system: Nc1ncnc2c1ncn2[C@@H]1O[C@H](COP(=O)(O)OP(=O)(O)OP(=O)(O)O)[C@@H](O)[C@H]1O
Test: purified protein
Conditions: 25 mM MES-Tris pH 6.5, 4 mM MgSO4, 10% glycerol, 25 C

“E. hirae V1-ATPase (A3B3DF complex) (Enterococcus hirae ATCC 9790)” was tested. Which Km did it give?
Its Km is 0.4 mM.
